Measurements published in patent US20090317382A1 (Genmab, published 2009).

B1: IgG4-637 (antibody)
heavy: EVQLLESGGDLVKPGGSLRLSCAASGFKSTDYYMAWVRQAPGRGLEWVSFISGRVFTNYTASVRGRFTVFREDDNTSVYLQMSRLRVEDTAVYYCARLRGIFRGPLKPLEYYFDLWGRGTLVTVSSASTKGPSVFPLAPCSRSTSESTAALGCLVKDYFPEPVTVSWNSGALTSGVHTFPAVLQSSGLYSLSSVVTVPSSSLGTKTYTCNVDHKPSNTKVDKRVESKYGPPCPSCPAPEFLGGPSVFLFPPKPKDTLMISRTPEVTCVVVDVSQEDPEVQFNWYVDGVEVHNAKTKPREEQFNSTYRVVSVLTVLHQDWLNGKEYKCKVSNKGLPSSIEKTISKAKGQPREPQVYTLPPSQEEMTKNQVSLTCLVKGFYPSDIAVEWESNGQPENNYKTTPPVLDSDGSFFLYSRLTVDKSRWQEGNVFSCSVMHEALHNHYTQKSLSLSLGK
light: EIELTQPHSVSESPGKTVTISCTRSSGSIASNYVQWYQQRPGSSPTTVIYEDNQRPSGVPDRFSGSIDSSSNSASLTISGLKTEDEADYYCQSYDSNSGGRVFGGGTKLTVLGQPKAAPSVTLFPPSSEELQANKATLVCLISDFYPGAVTVAWKADSSPVKAGVETTTPSKQSNNKYAASSYLSLTPEQWKSHRSYSCQVTHEGSTVEKTVAPTECS
notes: also called anti-MG
B2: IgG1-637 (antibody)
heavy: not shown
VL: EIELTQPHSVSESPGKTVTISCTRSSGSIASNYVQWYQQRPGSSPTTVIYEDNQRPSGVPDRFSGSIDSSSNSASLTISGLKTEDEADYYCQSYDSNSGGRVFGGGTKLTVL

How the values were obtained:
[1] = molecular target: T1, human AChR from membrane extracts of TE671 cells (human, UniProt P02708 21-457; P11230 24-501; P07510 23-517; Q07001 22-517)
[2] = molecular target: T1, human AChR from membrane extracts of …; remark: listed apart in the source
[3] = molecular target: T1, human AChR from membrane extracts of …; remark: listed apart in the source
human C1q [4] = molecular target: T2, human C1q (human, UniProt P02745 23-245; P02746 28-253; P02747 29-245); assay: ELISA: IgG coated at varied concentration, C1q binding read as OD405; sheet heading '3% human serum'
T2 construct: The method names purified human C1q at 2 µg/ml; also called C1q (Quidel, A400); first component of the classical complement system

AChR of rhesus monkeys = molecular target: T3, AChR of rhesus monkeys (rhesus monkey (Macaca mulatta)); assay: immunohistochemistry of endplates in human and monkey biopsies, qualitative comparison of staining intensities
T3 construct: In muscle tissue (sections of biopsies, or in the living animal); also called macaque AChR; monkey receptor

human C1q [5] = molecular target: T2, human C1q; assay: ELISA: IgG coated at varied concentration (the concentration is that of the coating), C1q binding read as OD405, 3% human serum
Procedure: (§1) Subsequently, plates were emptied. For the C3 and C4 ELISAs the wells were washed 3 times with 200 μl PBST (PBS supplemented with 0.05% (v/v) tween-20). Subsequently, for C1q ELISA, wells were incubated with 2 μg/mi human C1q (Quidel, San Diego, Calif., USA, A400) in C1q buffer (100 μl/well, 37° C., 1 h). […] After washing the plates (3×) with PBST for the C3 and C4 ELISA and C1q buffer for the C1q ELISA, for the C1q ELISA wells were incubated with rabbit anti-human C1q (DAKO, Glostrup, Denmark, A0136), diluted in C1q buffer (1:1000, 100 μl/well, room temperature, 1 h). […] After washing the plates (3×) with PBST for the C3 and C4 ELISA and C1q buffer for the C1q ELISA, for the C1q ELISA wells were incubated with HRP-conjugated swine anti-rabbit IgG-Fc (DAKO, P0399) diluted in ELISA buffer (1:2500, 100 μl/well, room temperature, 1 h). […] Absorbance was measured at 405 nm in an ELISA plate reader (Biotek Instruments Inc., Winooski, USA). To analyze, if complement activation by human IgG isotypes depends on the source of the complement, both human and rhesus serum were tested.

C1q (3% rhesus serum) = molecular target: T4, C1q (3% rhesus serum) (Macaca mulatta); assay: ELISA: IgG coated at varied concentration (the concentration is that of the coating), C1q binding read as OD405, 3% rhesus serum
T4 construct: native protein in 3% serum; also called rhesus C1q; C1q of rhesus monkey serum
Procedure: as §1

T2 sequence (P02745 23-245 limits assumed, chain 1 of 3): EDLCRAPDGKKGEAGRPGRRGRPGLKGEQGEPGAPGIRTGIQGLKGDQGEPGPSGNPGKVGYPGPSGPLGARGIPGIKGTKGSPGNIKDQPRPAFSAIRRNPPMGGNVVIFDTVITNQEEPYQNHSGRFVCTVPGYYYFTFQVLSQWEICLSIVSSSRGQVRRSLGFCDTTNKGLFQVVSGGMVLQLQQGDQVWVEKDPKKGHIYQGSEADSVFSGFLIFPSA
T2 sequence (P02746 28-253 limits assumed, chain 2 of 3): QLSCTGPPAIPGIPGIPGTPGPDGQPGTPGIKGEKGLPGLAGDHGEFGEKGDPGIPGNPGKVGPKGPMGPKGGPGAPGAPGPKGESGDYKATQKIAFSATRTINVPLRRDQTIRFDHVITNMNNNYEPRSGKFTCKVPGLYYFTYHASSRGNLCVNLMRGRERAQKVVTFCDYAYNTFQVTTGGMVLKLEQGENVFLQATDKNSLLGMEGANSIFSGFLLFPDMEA
T2 sequence (P02747 29-245 limits assumed, chain 3 of 3): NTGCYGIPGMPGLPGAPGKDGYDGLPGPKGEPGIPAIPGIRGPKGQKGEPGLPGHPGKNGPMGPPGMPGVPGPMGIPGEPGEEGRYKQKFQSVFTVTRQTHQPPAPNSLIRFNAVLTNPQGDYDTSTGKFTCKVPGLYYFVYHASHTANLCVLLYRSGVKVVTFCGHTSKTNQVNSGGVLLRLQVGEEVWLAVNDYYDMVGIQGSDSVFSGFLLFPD

Binder	Kd [1]	precipitation of the flag tagged antibody, percent remaining at two fold excess [1]	EC50 (read off the curve) [2]	IC50 (read off the curve) [3]	binding result (human C1q [4])	fold reduced affinity compared to human receptor (AChR of rhesus monkeys)	EC50 (read off the curve) (human C1q [5])	EC50 (read off the curve) (C1q (3% rhesus serum))
B1	~1.7 nM	~50%	~3 nM	~10 nM	no binding	–	–	–
B2	~1.7 nM	~50%	~3 nM	~10 nM	–	~10 fold	~2 µg/mL	~2 µg/mL
